Test results as given in US5705609A, “Decorin fragments inhibiting cell regulatory factors” (La Jolla Cancer Research Foundation, priority 1995, dated 1998).
“Also recorded” adds a separate entry of the source.

Tests used:
[1] = target: TGFβ-1 (Homo sapiens, UniProt P01137); experiment: Microtiter binding assay: [125I]-TGFβ-1 binding to decorin-coated wells and competition; parameters: contains a major band at 25 kd; This band represents the native TGFβ-1 dimer; purchased Calbiochem, La Jolla, Calif; settings: for inhibition of [125I]-TGFβ-1 binding to decorin-coated wells by core proteins: core proteins / chondroitinase ABC-treated, 4° C. overnight (FIG. 3B); for inhibition of [125I]-TGFβ-1 binding to decorin-coated wells: intact proteoglycans, 37° C. 4 hours (FIG. 3A); for binding of [125I]-TGFβ-1 to microtiter wells coated with the protein: protein coated on wells
Chain of TGFβ-1 (P01137 279-390 limits assumed, species assumed): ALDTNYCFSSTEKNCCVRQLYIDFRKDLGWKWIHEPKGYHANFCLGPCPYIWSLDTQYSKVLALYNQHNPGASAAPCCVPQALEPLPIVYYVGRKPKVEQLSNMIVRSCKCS
Protocol: The binding of TGFβ-1 to decorin was also examined in a microtiter binding assay. To perform the assay, the wells of a 96-well microtiter plate were coated overnight with 2μg/ml of recombinant decorin in 0.1M sodium carbonate buffer, pH 9.5. The wells were washed with PBS containing 0.05% Tween (PBS/Tween) and samples containing 5×10^4 cpm of [^125 I]-TGFβ-1 and various concentrations of competitors in PBS/Tween were added to each well. The plates were then incubated at 37° C. for 4 hours (at 4° C. overnight in experiments with chondroitinase ABC-digested proteoglycans), washed with PBS/Tween and the bound radioactivity was solubilized with 1% SDS in 0.2M NaOH. Total binding without competitors was about 4% under the conditions used. Nonspecific binding, determined by adding 100-fold molar excess of unlabeled TGFβ-1 over the labeled TGFβ-1 to the incubation mixture, was about 13% of total binding. This assay was also used to study the ability of other decorin preparations and related proteins to compete with the interaction.
Decorin isolated from bovine skin and biglycan isolated from bovine articular cartilage (PGI and PGII, obtained from Dr. Lawrence Rosenberg, Monteflore Medical Center, N.Y.; and described in Rosenberg et al., J. Biol. Chem. 250:6304-6313, (1985), incorporated by reference herein), chicken cartilage proteoglycan (provided by Dr. Paul Goetinck, La Jolla Cancer Research Foundation, La Jolla, Calif., and described in Goetinck, P. F., in THE GLYCOCONJUGATES, Vol. III, Horwitz, M. I., Editor, pp. 197-217, Academic Press, NY). For the preparation of core proteins, proteoglycans were digested with chondroitinase ABC (Seikagaku, Tokyo, Japan) by incubating 500 μg of proteoglycan with 0.8 units of chondroitinase ABC in 250 μl of 0.1M Tris/Cl, pH 8.0, 30 mM sodium acetate, 2 mM PMSF, 10 mM N-ethylmalelmide, 10 mM EDTA, and 0.36 mM pepstatin for 1 hour at 37° C. Recombinant decorin and decorin isolated from bovine skin (PGII) inhibited the binding of [^125 I]-TGFβ-1, as expected (FIG. 3A). […] This notion was further supported by competition experiments with the mutated decorin core protein (not shown) and chondroitinase ABC-digested decorin and biglycan (FIG.3B). Each of these proteins was inhibitory, whereas cartilage proteoglycan core protein was not.

[2] = target: T1, TGF-β (Homo sapiens, UniProt P01137); experiment: Binding of 125I-TGF-β to L-M(tk-) cells; settings: various concentrations of peptide (FIG. 12)
T1 sequence (P01137 279-390 limits assumed): as the sequence (P01137 279-390 limits assumed, species assumed) above
Protocol: About 2.5×10^4 HepG2 cells or L-M(tk-) cells were incubated with 250 pM[^125 I]TGF-β in the presence of recombinant human decorin (DC-12), PT-71 (MBP), decorin fragments (PT-72, -73, -84, -85, -86 and -87) or anti-TGF-β antibodies for 2 hours at room temperature. Cells were washed with washing buffer (128 mM NaCl, 5 mM KCl, 5 mM […], 1.2 mM CaCl2, 50 mM HEPES, pH 7.5) four times before determination of bound CPM.
The activity of the peptides was evaluated using the L-M(tk-) TGFβ1 binding inhibition assay described in Example VII, except various concentrations of peptide were incubated with the cells and TGFβ1 instead of decorin and recombinant decorin fragments. The negative control was a synthetic peptide corresponding to the first 15 amino acids of decorin, which has the sequence […](SEQ ID NO. 21).

[3] = target: T1, TGF-β; experiment: Binding of 125I-TGF-β to immobilized decorin with competitors; settings: 400 pM 125I-TGF-β pre-incubated with competitor; overnight 0° C.
Protocol: Immulon wells were coated with 0.5 μg/ml recombinant decorin at 50 μl/well. The wells were placed in a 37° C. incubator overnight and thereafter washed 3 times with 200 μl PBS (0.15M NaCl ) per well to remove unbound decorin. TGF-β labeled with ^125 I (400 pM, New England Nuclear, Bolton-Hunter Labeled) was pre-incubated with or without competitors in 200 μl PBS/0.05% Tween-20 for 1 hour and 45 minutes at room temperature. Competitors included recombinant human decorin preparations (DC-13 and DC-18v), decorin fragments, and MBP as a negative control.
Fifty μl/well of the pre-incubated ^125 I-TGF-β mixture or control were added and incubated overnight at 0° C. Following the incubation, 50 μl of the free TGF-β supernatants were transferred to labeled tubes. The plate was washed 3 times with 0.05% Tween-20 in PBS (200 μl/well). The wells were then transferred into tubes for counting in a gamma counter.
Further binding studies were conducted with soluble N-terminal decorin peptide fragments synthesized and tested for their ability to inhibit TGF-β1 binding to immobilized decorin as described above.

Bovine serum albumin treated with chondroitinase ABC: BSA treated with chondroitinase ABC, control [reference compound]
inhibition of [125I]-TGFβ-1 binding to decorin-coated wells by core proteins [1]: did not shown any inhibition

Bovine serum albumin: bovine serum albumin control [reference compound]
inhibition of [125I]-TGFβ-1 binding to decorin-coated wells [1]: did not shown any inhibition

PFRCQCHLRVVQ [nP25 -Q36, 20]
inhibition of binding of TGFβ1 to L-M(tk-) cells by synthetic peptides [2]: demonstrated inhibitory activity, albeit to a lesser extent

PFRSQSHLRVVQ [P25 -Q36, 18]
inhibition of binding of TGFβ1 to L-M(tk-) cells by synthetic peptides [2]: inhibited

B1: decorin isolated from bovine skin (PGII): decorin isolated from bovine skin (protein, UniProt P21793 31-360, looked up)
Decorin: DEASGIGPEEHFPEVPEIEPMGPVCPFRCQCHLRVVQCSDLGLEKVPKDLPPDTALLDLQNNKITEIKDGDFKNLKNLHTLILINNKISKISPGAFAPLVKLERLYLSKNQLKELPEKMPKTLQELRVHENEITKVRKSVFNGLNQMIVVELGTNPLKSSGIENGAFQGMKKLSYIRIADTNITTIPQGLPPSLTELHLDGNKITKVDAASLKGLNNLAKLGLSFNSISAVDNGSLANTPHLRELHLNNNKLVKVPGGLADHKYIQVVYLHNNNISAIGSNDFCPPGYNTKKASYSGVSLFSNPVQYWEIQPSTFRCVYVRAAVQLGNYK
inhibition of [125I]-TGFβ-1 binding to decorin-coated wells [1]: inhibited

B2: Biglycan isolated from bovine articular cartilage: biglycan isolated from bovine articular cartilage (protein)
chain: DEEASGAETTSGIPDLDSLPPTYSAMCPFGCHCHLRVVQCSDLGLKAVPKEISPDTTLLDLQNNDISELRKDDFKGLQHLYALVLVNNKISKIHEKAFSPLRKLQKLYISKNHLVEIPPNLPSSLVELRIHDNRIRKVPKGVFSGLRNMNCIEMGGNPLENSGFEPGAFDGLKLNYLRISEAKLTGIPKDLPETLNELHLDHNKIQAIELEDLLRYSKLYRLGLGHNQIRMIENGSLSFLPTLRELHLDNNKLSRVPAGLPDLKLLQVVYLHTNNITKVGVNDFCPVGFGVKRAYYNGISLFNNPVPYWEVQPATFRCVTDRLAIQFGNYKK
modifications: intact proteoglycan (carries glycosaminoglycan)
inhibition of [125I]-TGFβ-1 binding to decorin-coated wells [1]: as effective an inhibitor as decorin
binding of [125I]-TGFβ-1 to microtiter wells coated with the protein [1]: bound

B3: chondroitinase ABC-digested biglycan: biglycan core protein prepared by chondroitinase ABC digestion (protein)
chain: DEEASGAETTSGIPDLDSLPPTYSAMCPFGCHCHLRVVQCSDLGLKAVPKEISPDTTLLDLQNNDISELRKDDFKGLQHLYALVLVNNKISKIHEKAFSPLRKLQKLYISKNHLVEIPPNLPSSLVELRIHDNRIRKVPKGVFSGLRNMNCIEMGGNPLENSGFEPGAFDGLKLNYLRISEAKLTGIPKDLPETLNELHLDHNKIQAIELEDLLRYSKLYRLGLGHNQIRMIENGSLSFLPTLRELHLDNNKLSRVPAGLPDLKLLQVVYLHTNNITKVGVNDFCPVGFGVKRAYYNGISLFNNPVPYWEVQPATFRCVTDRLAIQFGNYKK
modifications: glycosaminoglycan removed with chondroitinase ABC
notes: biglycan core protein prepared by chondroitinase ABC digestion
inhibition of [125I]-TGFβ-1 binding to decorin-coated wells by core proteins [1]: inhibitory; also recorded: somewhat more active than the intact proteoglycans
binding of [125I]-TGFβ-1 to microtiter wells coated with the protein [1]: bound

B4: DC-13: preparation of recombinant human decorin (protein)
chain: DEASGIGPEVPDDRDFEPSLGPVCPFRCQCHLRVVQCSDLGLDKVPKDLPPDTTLLDLQNNKITEIKDGDFKNLKNLHALILVNNKISKVSPGAFTPLVKLERLYLSKNQLKELPEKMPKTLQELRAHENEITKVRKVTFNGLNQMIVIELGTNPLKSSGIENGAFQGMKKLSYIRIADTNITSIPQGLPPSLTELHLDGNKISRVDAASLKGLNNLAKLGLSFNSISAVDNGSLANTPHLRELHLDNNKLTRVPGGLAEHKYIQVVYLHNNNISVVGSSDFCPPGHNTKKASYSGVSLFSNPVQYWEIQPSTFRCVYVRSAIQLGNYK
modifications: single glycosaminoglycan chain of a chondroitin sulfate/dermatan sulfate type on serine-4
notes: preparation of recombinant human decorin
inhibition of 125I-TGF-β binding to immobilized decorin [3]: inhibited

B5: DC-18V: preparation of recombinant human decorin (protein)
chain: DEASGIGPEVPDDRDFEPSLGPVCPFRCQCHLRVVQCSDLGLDKVPKDLPPDTTLLDLQNNKITEIKDGDFKNLKNLHALILVNNKISKVSPGAFTPLVKLERLYLSKNQLKELPEKMPKTLQELRAHENEITKVRKVTFNGLNQMIVIELGTNPLKSSGIENGAFQGMKKLSYIRIADTNITSIPQGLPPSLTELHLDGNKISRVDAASLKGLNNLAKLGLSFNSISAVDNGSLANTPHLRELHLDNNKLTRVPGGLAEHKYIQVVYLHNNNISVVGSSDFCPPGHNTKKASYSGVSLFSNPVQYWEIQPSTFRCVYVRSAIQLGNYK
modifications: single glycosaminoglycan chain of a chondroitin sulfate/dermatan sulfate type on serine-4
notes: as for B4
inhibition of 125I-TGF-β binding to immobilized decorin [3]: inhibited

B6: mutated decorin core protein: decorin core protein with serine-4 mutated, lacking glycosaminoglycan (protein)
chain: DEATGIGPEVPDDRDFEPSLGPVCPFRCQCHLRVVQCSDLGLDKVPKDLPPDTTLLDLQNNKITEIKDGDFKNLKNLHALILVNNKISKVSPGAFTPLVKLERLYLSKNQLKELPEKMPKTLQELRAHENEITKVRKVTFNGLNQMIVIELGTNPLKSSGIENGAFQGMKKLSYIRIADTNITSIPQGLPPSLTELHLDGNKISRVDAASLKGLNNLAKLGLSFNSISAVDNGSLANTPHLRELHLDNNKLTRVPGGLAEHKYIQVVYLHNNNISVVGSSDFCPPGHNTKKASYSGVSLFSNPVQYWEIQPSTFRCVYVRSAIQLGNYK
inhibition of [125I]-TGFβ-1 binding to decorin-coated wells by core proteins [1]: inhibitory

B7: chondroitinase ABC-digested decorin: decorin core protein prepared by chondroitinase ABC digestion (protein)
chain: DEATGIGPEVPDDRDFEPSLGPVCPFRCQCHLRVVQCSDLGLDKVPKDLPPDTTLLDLQNNKITEIKDGDFKNLKNLHALILVNNKISKVSPGAFTPLVKLERLYLSKNQLKELPEKMPKTLQELRAHENEITKVRKVTFNGLNQMIVIELGTNPLKSSGIENGAFQGMKKLSYIRIADTNITSIPQGLPPSLTELHLDGNKISRVDAASLKGLNNLAKLGLSFNSISAVDNGSLANTPHLRELHLDNNKLTRVPGGLAEHKYIQVVYLHNNNISVVGSSDFCPPGHNTKKASYSGVSLFSNPVQYWEIQPSTFRCVYVRSAIQLGNYK
inhibition of [125I]-TGFβ-1 binding to decorin-coated wells by core proteins [1]: inhibitory; also recorded: somewhat more active than the intact proteoglycans
